The source of these data is patent US20220033460A1, “IDENTIFICATION AND USE OF T CELL EPITOPES IN DESIGNING DIAGNOSTIC AND THERAPEUTIC APPROACHES FOR COVID-19” (priority 2020, published 2022).

Like-named read-outs stand apart in the source and are kept apart here.

Experiment [1] concerns the target SARS-CoV-2 peptide on HLA-A*02:01 (human). The experiment can be described thus: barcoded tetramer library on ex vivo CD8+ T cells, single-cell sequencing; T cell clone or line. Particulars: chains Valpha:Vbeta.
A further experiment concerns the target T1, I-Ab (mouse), P14434.
T1 chain 1: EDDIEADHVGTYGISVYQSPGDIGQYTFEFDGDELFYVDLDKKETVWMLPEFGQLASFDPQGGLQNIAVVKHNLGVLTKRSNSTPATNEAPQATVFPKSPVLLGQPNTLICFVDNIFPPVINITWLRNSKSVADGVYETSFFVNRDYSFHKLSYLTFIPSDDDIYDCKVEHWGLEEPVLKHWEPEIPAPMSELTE
T1 chain 2: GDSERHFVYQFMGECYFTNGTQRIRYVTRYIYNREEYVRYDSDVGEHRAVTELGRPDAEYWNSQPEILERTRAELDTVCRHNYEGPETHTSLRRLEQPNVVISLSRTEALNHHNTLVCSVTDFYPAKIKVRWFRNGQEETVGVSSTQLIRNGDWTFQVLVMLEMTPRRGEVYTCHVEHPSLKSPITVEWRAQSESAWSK
In words: biochemically tested I-Ab binding affinity (method not told).

In experiment [2] the target is DRB01*04:04. Particulars: modification not given.
Experiment [3] concerns the target DRB01*07:01. Particulars: modification not given.
Experiment [4] has as its target DRB01*11:01. Particulars: modification not given.
The target in experiment [5] is DRB1*15:01. Particulars: modification not given.
Experiment [6] addresses DRB01*15:01. Particulars: chains peptide; modification not given.
In experiment [7] the target is DRB01*04:04. Particulars: chains peptide; modification not given.
The target of experiment [8] is DRB01*15:01. The settings on record: chains peptide; modification not given. The source holds these as a separate data set.
Experiment [9] has as its target DRB01*11:01. The settings on record: chains peptide; modification not given.
Experiment [10] deals with DRB01*07:01. The settings on record: chains peptide; modification not given.
The target of experiment [11] is DRB01*04:04. Particulars: chains peptide; modification not given. This is another data set of the same source.
Experiment [12] has as its target DRB1*07:01. Particulars: modification not given.
For experiment [13], the target named is DRB1*15:01. The settings on record: modification not given. This is another data set of the same source.
The target of experiment [14] is M protein peptide on HLA-A*02:01 (human). In words: barcoded tetramer library on ex vivo CD8+ T cells, single-cell sequencing; T cell clone or line. The settings on record: chains Valpha:Vbeta.
In experiment [15] the target is DRB1*07:01. The settings on record: modification not given. The source holds these as a separate data set.

B1: TCR_93 (protein)
chain 1: ILNVEQSPQSLHVQEGDSTNFTCSFPSSNFYALHWYRWETAKSPEALFVMTLNGDEKKKGRISATLNTKEGYSYLYIKGSQPEDSATYLCALDYGQNFVFGPGTRLSVLP
chain 2: DGGITQSPKYLFRKEGQNVTLSCEQNLNHDAMYWYRQDPGQGLRLIYYSQIVNDFQKGDIAEGYSVSREKKESFPLTVTSAQKNPTAFYLCASSIGSREAFFGQGTRLTVV
Molecule B1 came in with a No. of Cells in experiment [1] of 2 cells.

B2: … (peptide)
peptide: AWENTTIDLTSEKPA
modifications: not checked
In the experiment with I-Ab (mouse), P14434, B2 yielded a concentration for half-maximal inhibition (IC50) of 10 µM.

B3: Positive Control … (peptide)
chain: PKYVKQNTLKLAT
On to B3, for which the results for the IC50 with DRB01*04:04 [2], with DRB01*07:01 [3] and with DRB01*11:01 [4] were 5.31 µM, 2.32 µM and 0.257 µM, respectively.

B4: … (position 477) (peptide)
chain: STPCNGVEGFNCYFP
As for B4, the IC50 in the experiment with DRB1*15:01 [5] was determined as 6.82 µM.

B5: SEQ ID NO 310 (peptide)
chain: VILRGHLRIAGHHLGRCDIKDLP
Regarding B5, the IC50 with DRB01*15:01 [6] was 5.43 µM; with DRB01*04:04 [7] it was 1.91 µM.

B6: SEQ ID NO 312 (peptide)
chain: GAVILRGHLRIAGHHLGR
With B6, the IC50 with DRB01*15:01 [8] stood at 3.22 µM; with DRB01*11:01 [9] it was 0.383 µM; with DRB01*07:01 [10], 14.5 µM; with DRB01*04:04 [11] it was 9.54 µM.

B7: … (position 1016) (peptide)
chain: AEIRASANLAATKMS
In the case of B7, the values for the IC50 in the experiment with DRB1*07:01 [12] and in the experiment with DRB1*15:01 [13] were 0.395 µM and 0.578 µM, respectively.

B8: TCR_74 (protein)
chain 1: GQNIDQPTEMTATEGAIVQINCTYQTSGFNGLFWYQQHAGEAPTFLSYNVLDGLEEKGRFSSFLSRSKGYSYLLLKELQMKDSASYLCAVRDLGGQKLLFARGTMLKVDL
chain 2: DAGVTQSPTHLIKTRGQQVTLRCSPKSGHDTVSWYQQALGQGPQFIFQYYEEEERQRGNFPDRFSGHQFPNYSSELNVNALLLGDSALYLCASSLGQGSPAGANVLTFGAGSRLTVL
In [14], B8 registered a No. of Cells of 2 cells.

B9: … (position 1112) (peptide)
chain: PQIITTDNTFVSGNC
Take B9: in the experiment with DRB1*07:01 [15], the IC50 was 7.37 µM.
